Substitutions are numbered along the chain they refer to. Names may count otherwise.
B1: Ib_S2_P3E.1_K3.1_C3.1_H3.1_[G2T]_A3.1_F3.1_[A8C]_T3.1 (ssRNA)
RNA: UUUGAUUAAUAUGAUAUCGUUCUUUCUUUUAUAUCUUCUUUCUCGAUAUCAUAUUAAUCUUU
B2: Ib_S2_P3E.1_K3.1_C3.1_H3.1_[A4C]_A3.1_F3.1_[A8C]_T3.1 (ssRNA)
RNA: B1 RNA with U29G, A31C
B3: Ib_S2_P3E.1_K3.1_C3.1_H3.1_[G2C]_A3.1_F3.1_[A8T]_T3.1 (ssRNA)
RNA: B1 RNA with U29C, C35U
B4: Ib_S2_P3E.1_K3.1_C3.1_H3.1_[T3C]_A3.1_F3.1_[A8C]_T3.1 (ssRNA)
RNA: B1 RNA with U29G, U30C
B5: Ib_S2_P3E.1_K3.1_C3.1_H3.1_[A4G]_A3.1_F3.1_[A8C]_T3.1 (ssRNA)
RNA: B1 RNA with U29G, A31G

molecular target: T1, PUF4 RNA-binding domain (Saccharomyces cerevisiae, UniProt P25339 537-888); experiment: Mg; RNA-MaP; 20 mM Na-HEPES pH 7.4, 30 mM KOAc, 0.75 mM MgCl2, 0.1% Tween-20, 5% glycerol, 0.1 mg/mL BSA, 2 mM DTT; 25 C; 0.0125-409.6 nM protein; settings: tags: N-His6-TEV cleaved; C-SNAP kept, Cy3B-labelled; label: tethered on chip by stalled RNA polymerase
T1 sequence: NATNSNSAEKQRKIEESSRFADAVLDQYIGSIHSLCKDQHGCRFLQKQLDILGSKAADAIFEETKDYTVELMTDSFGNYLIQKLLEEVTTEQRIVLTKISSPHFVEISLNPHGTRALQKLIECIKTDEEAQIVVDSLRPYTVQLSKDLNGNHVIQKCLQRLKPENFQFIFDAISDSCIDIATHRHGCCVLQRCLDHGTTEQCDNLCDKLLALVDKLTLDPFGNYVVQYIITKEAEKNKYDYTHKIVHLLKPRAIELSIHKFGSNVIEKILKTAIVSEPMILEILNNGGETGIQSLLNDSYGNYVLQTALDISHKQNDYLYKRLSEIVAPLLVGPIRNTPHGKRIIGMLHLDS

Row | Binder | Kd [µM]
1 | UCUCUUUGUACCUCUUUAUUAUCUCUU (ssRNA) [Ie_S1_P5E.1_K5.1_C5.1_H5.1_[+4CCTCT]_A5.1_F5.1_T5.1] | 0.0354
2 | UCUCUUUGUAUUUCCUUAUUAUCUCUU (ssRNA) [Ie_S1_P5E.1_K5.1_C5.1_H5.1_A5.1_[+5TTCCT]_F5.1_T5.1] | 0.0301
3 | UCUCUUUGUAUUAUUUCCUAUCUCUU (ssRNA) [Ie_S1_P5E.1_K5.1_C5.1_H5.1_A5.1_F5.1_[+8TTCC]_T5.1] | 0.015
4 | UCUCUUUGUAUUCCUCUAUUAUCUCUU (ssRNA) [Ie_S1_P5E.1_K5.1_C5.1_H5.1_A5.1_[+6CCTCT]_F5.1_T5.1] | 0.0662
5 | UCUCUUUGUAUUAUUCUAUCUCUU (ssRNA) [Ie_S1_P5E.1_K5.1_C5.1_H5.1_A5.1_F5.1_[+8TC]_T5.1] | 0.0199
6 | UCUCUUUGUAUUACCCUUAUCUCUU (ssRNA) [Ie_S1_P5E.1_K5.1_C5.1_H5.1_A5.1_[+7CCC]_F5.1_T5.1] | 0.209
7 | UCUCUUUGUAUUAUUCUCUAUCUCUU (ssRNA) [Ie_S1_P5E.1_K5.1_C5.1_H5.1_A5.1_F5.1_[+8TCTC]_T5.1] | 0.0178
8 | UCUCUUUGUAUUACCUCUUAUCUCUU (ssRNA) [Ie_S1_P5E.1_K5.1_C5.1_H5.1_A5.1_[+7CCTC]_F5.1_T5.1] | 0.428
9 | UCUCUUUGUAUUAUUCCUAUCUCUU (ssRNA) [Ie_S1_P5E.1_K5.1_C5.1_H5.1_A5.1_F5.1_[+9CCT]_T5.1] | 0.0255
10 | UCUCUUUGUAUUAUCCCUUAUCUCUU (ssRNA) [Ie_S1_P5E.1_K5.1_C5.1_H5.1_A5.1_F5.1_[+8CCCT]_T5.1] | 0.0335
11 | UCUCUUUGUAUCCUCUUAUUAUCUCUU (ssRNA) [Ie_S1_P5E.1_K5.1_C5.1_H5.1_A5.1_[+5CCTCT]_F5.1_T5.1] | 0.0303
12 | UCUCUUUGUAUUAUUCUCUUAUCUCUU (ssRNA) [Ie_S1_P5E.1_K5.1_C5.1_H5.1_A5.1_F5.1_[+8TCTCT]_T5.1] | 0.0168
13 | UCUCUUUGUAUUACCUUAUCUCUU (ssRNA) [Ie_S1_P5E.1_K5.1_C5.1_H5.1_A5.1_[+7CC]_F5.1_T5.1] | 0.0767
14 | UCUCUUUGUAUUUCUCUAUUAUCUCUU (ssRNA) [Ie_S1_P5E.1_K5.1_C5.1_H5.1_A5.1_[+6TCTCT]_F5.1_T5.1] | 0.0309
15 | UCUCUUUGUAUCCCUUUAUUAUCUCUU (ssRNA) [Ie_S1_P5E.1_K5.1_C5.1_H5.1_A5.1_[+5CCCTT]_F5.1_T5.1] | 0.0604
16 | UCUCUUUGUAUUAUCUUAUCUCUU (ssRNA) [Ie_S1_P5E.1_K5.1_C5.1_H5.1_A5.1_[+7TC]_F5.1_T5.1] | 0.0157
17 | UCUCUUUGUAUUCCUCAUUAUCUCUU (ssRNA) [Ie_S1_P5E.1_K5.1_C5.1_H5.1_A5.1_[+6CCTC]_F5.1_T5.1] | 0.12
18 | UCUCUUUGUAUUCUCUCAUUAUCUCUU (ssRNA) [Ie_S1_P5E.1_K5.1_C5.1_H5.1_A5.1_[+6CTCTC]_F5.1_T5.1] | 0.0844
19 | UCUCUUUGUAUUAUCCCUAUCUCUU (ssRNA) [Ie_S1_P5E.1_K5.1_C5.1_H5.1_A5.1_F5.1_[+8CCC]_T5.1] | 0.0338
20 | UCUCUUUGUAUUCCCAUUAUCUCUU (ssRNA) [Ie_S1_P5E.1_K5.1_C5.1_H5.1_A5.1_[+6CCC]_F5.1_T5.1] | 0.35

Row | Binder | Kd [µM]
21 | UCUCUUUGUAUUAUUUCCUUAUCUCUU (ssRNA) [Ie_S1_P5E.1_K5.1_C5.1_H5.1_A5.1_F5.1_[+8TTCCT]_T5.1] | 0.0171
22 | UCUCUUUGUAUUUCUAUUAUCUCUU (ssRNA) [Ie_S1_P5E.1_K5.1_C5.1_H5.1_A5.1_[+5TTC]_F5.1_T5.1] | 0.00657
23 | UCUCUUUGUAUUAUCCUUAUCUCUU (ssRNA) [Ie_S1_P5E.1_K5.1_C5.1_H5.1_A5.1_F5.1_[+8CCT]_T5.1] | 0.0207
24 | UCUCUUUGUAUUAUUCCUUUAUCUCUU (ssRNA) [Ie_S1_P5E.1_K5.1_C5.1_H5.1_A5.1_[+7TTCCT]_F5.1_T5.1] | 0.0167
25 | UCUCUUUGUAUUUUCCUAUUAUCUCUU (ssRNA) [Ie_S1_P5E.1_K5.1_C5.1_H5.1_A5.1_[+6TTCCT]_F5.1_T5.1] | 0.0267
26 | UCUCUUUGUAUUAUCCUAUCUCUU (ssRNA) [Ie_S1_P5E.1_K5.1_C5.1_H5.1_A5.1_F5.1_[+8CC]_T5.1] | 0.0263
27 | UCUCUUUGUAUUAUCUCUUUAUCUCUU (ssRNA) [Ie_S1_P5E.1_K5.1_C5.1_H5.1_A5.1_[+7TCTCT]_F5.1_T5.1] | 0.0406
28 | UCUCUUUGUAUUAUCCUCUAUCUCUU (ssRNA) [Ie_S1_P5E.1_K5.1_C5.1_H5.1_A5.1_F5.1_[+8CCTC]_T5.1] | 0.0319
29 | UCUCUUUGUAUUCCCUAUUAUCUCUU (ssRNA) [Ie_S1_P5E.1_K5.1_C5.1_H5.1_A5.1_[+6CCCT]_F5.1_T5.1] | 0.0324
30 | UCUCUUUGUAUUACCCUUUAUCUCUU (ssRNA) [Ie_S1_P5E.1_K5.1_C5.1_H5.1_A5.1_[+7CCCT]_F5.1_T5.1] | 0.303
31 | UCUCUUUGUAUUAUUUUAUCUCUU (ssRNA) [Ie_S1_P5E.1_K5.1_C5.1_H5.1_A5.1_[+7TT]_F5.1_T5.1] | 0.0156
32 | UCUCUUUGUAUUUUCAUUAUCUCUU (ssRNA) [Ie_S1_P5E.1_K5.1_C5.1_H5.1_A5.1_[+6TTC]_F5.1_T5.1] | 0.0407
33 | UCUCUUUGUAUUAUCCUCUUAUCUCUU (ssRNA) [Ie_S1_P5E.1_K5.1_C5.1_H5.1_A5.1_F5.1_[+8CCTCT]_T5.1] | 0.0231
34 | UCUCUUUGUAUUAUUUCUCAUCUCUU (ssRNA) [Ie_S1_P5E.1_K5.1_C5.1_H5.1_A5.1_F5.1_[+9TCTC]_T5.1] | 0.0163
35 | UCUCUUUGUAUUAUCUCUUAUCUCUU (ssRNA) [Ie_S1_P5E.1_K5.1_C5.1_H5.1_A5.1_[+7TCTC]_F5.1_T5.1] | 0.0222
36 | UCUCUUUGUAUUAUUCCUUAUCUCUU (ssRNA) [Ie_S1_P5E.1_K5.1_C5.1_H5.1_A5.1_[+7TTCC]_F5.1_T5.1] | 0.0138
37 | UCUCUUUGUACCCUUUUAUUAUCUCUU (ssRNA) [Ie_S1_P5E.1_K5.1_C5.1_H5.1_[+4CCCTT]_A5.1_F5.1_T5.1] | 0.0423
38 | UCUCUUUGUAUUAUUUUUAUCUCUU (ssRNA) [Ie_S1_P5E.1_K5.1_C5.1_H5.1_A5.1_F5.1_[+8TTT]_T5.1] | 0.0134
39 | UCUCUUUGUAUUACCCUUUUAUCUCUU (ssRNA) [Ie_S1_P5E.1_K5.1_C5.1_H5.1_A5.1_[+7CCCTT]_F5.1_T5.1] | 0.143
40 | UCUCUUUGUAUUACCUCUUUAUCUCUU (ssRNA) [Ie_S1_P5E.1_K5.1_C5.1_H5.1_A5.1_[+7CCTCT]_F5.1_T5.1] | 0.412

Row | Binder | Kd [µM]
41 | UCUCUUUGUAUUAUUCAUCUCUU (ssRNA) [Ie_S1_P5E.1_K5.1_C5.1_H5.1_A5.1_F5.1_[+9C]_T5.1] | 0.0253
42 | UCUCUUUGUAUUACUCUUUAUCUCUU (ssRNA) [Ie_S1_P5E.1_K5.1_C5.1_H5.1_A5.1_[+7CTCT]_F5.1_T5.1] | 0.0989
43 | UCUCUUUGUAUUACUUUAUCUCUU (ssRNA) [Ie_S1_P5E.1_K5.1_C5.1_H5.1_A5.1_[+7CT]_F5.1_T5.1] | 0.0373
44 | UCUCUUUGUAUUAUUCUUAUCUCUU (ssRNA) [Ie_S1_P5E.1_K5.1_C5.1_H5.1_A5.1_F5.1_[+8TCT]_T5.1] | 0.0167
45 | UCUCUUUGUAUUAUUUCUAUCUCUU (ssRNA) [Ie_S1_P5E.1_K5.1_C5.1_H5.1_A5.1_F5.1_[+8TTC]_T5.1] | 0.0182
46 | UCUCUUUGUAUUAUCUCUAUCUCUU (ssRNA) [Ie_S1_P5E.1_K5.1_C5.1_H5.1_A5.1_F5.1_[+8CTC]_T5.1] | 0.0286
47 | UCUCUUUGUAUCUCUCUAUUAUCUCUU (ssRNA) [Ie_S1_P5E.1_K5.1_C5.1_H5.1_A5.1_[+5CTCTC]_F5.1_T5.1] | 0.036
48 | UCUCUUUGUAUUCCUUUAUUAUCUCUU (ssRNA) [Ie_S1_P5E.1_K5.1_C5.1_H5.1_[+4TTCCT]_A5.1_F5.1_T5.1] | 0.0485
49 | UCUCUUUGUAUUAUCUCUCUAUCUCUU (ssRNA) [Ie_S1_P5E.1_K5.1_C5.1_H5.1_A5.1_F5.1_[+8CTCTC]_T5.1] | 0.0214
50 | UCUCUUUGUAUUAUCUUUAUCUCUU (ssRNA) [Ie_S1_P5E.1_K5.1_C5.1_H5.1_A5.1_F5.1_[+8CTT]_T5.1] | 0.0192
51 | UCUCUUUGUAUUCUCUUAUUAUCUCUU (ssRNA) [Ie_S1_P5E.1_K5.1_C5.1_H5.1_A5.1_[+5TCTCT]_F5.1_T5.1] | 0.0294
52 | UCUCUUUGUAUUAUUUAUCUCUU (ssRNA) [Ie_S1_P5E.1_K5.1_C5.1_H5.1_A5.1_F5.1_[+8T]_T5.1] | 0.00884
53 | B1 | > 2.3
54 | B2 | 2.13
55 | B3 | 1.31
56 | B4 | > 2.3
57 | B5 | 0.0157
58 | UCUCUUUGUAUUAUUUCCAUCUCUU (ssRNA) [Ie_S1_P5E.1_K5.1_C5.1_H5.1_A5.1_F5.1_[+9TCC]_T5.1] | 0.0204
59 | UCUCUUUGUAUUAUCCCUUUAUCUCUU (ssRNA) [Ie_S1_P5E.1_K5.1_C5.1_H5.1_A5.1_F5.1_[+8CCCTT]_T5.1] | 0.0231
60 | UCUCUUUGUAUUUUCCAUUAUCUCUU (ssRNA) [Ie_S1_P5E.1_K5.1_C5.1_H5.1_A5.1_[+6TTCC]_F5.1_T5.1] | 0.0518
